According to the RNAGym collection of RNA variant scans (doi:10.1073/pnas.2313332121):

B1: TPR t1 (parent)
chain: GACCAAUCUGCCCUCAGAGCUCGAGAACAUCUUCGGAUGCAGAGGAGGCAGGCUUCGGUGGCGCGAUAGCGCCAACGUCCUCAACCUCCAAUGCAUCCCACCACAUGAUGAUGCCUGAAGAGCCUUGGUUUUUUG

Variants of: B1
Experiment: polymerase ribozyme fitness, log enrichment relative to wild type (log ratio); higher = more active; in vitro selection for triplet polymerase activity
Procedure, shortened: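 To select mutant libraries of each subunit of a heterodimeric triplet polymerase ribozyme, built by PCR and transcribed, each was annealed with a biotinylated primer, partner subunit and triplets, then incubated frozen at −7 °C. Extended constructs were gel-excised, captured on streptavidin beads and amplified by RT-PCR, in one round carried out in triplicate. Illumina sequencing of input and output libraries kept genotypes with ≥10 input reads and ≥1 read per output. Fitness is the base-2 logarithm of genotype enrichment relative to wild-type enrichment, from inverse-variance-weighted replicate averages.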

Row | Variant | polymerase ribozyme fitness (log ratio)
1 | GACCAAUCUGCCCUCAGAGCUCGAGAACAUCUUCGGAUGCAGAGGAGGCAGGCUUCGGUGGCGCGAUAGCGCCAACGUCCUCAACCUCCGAUGCAUCCCACCACAUGAUGAUUCCUGCAGAGCCUUGGUUUUUUG [A90G G113U A118C] | -4.53
2 | GACCAAUCUGCCCUCAGAGCUCGAGAACAUCUUCGGAUGCAGAGGAGGCAGGCUUCGGUGGCGCGAUAGCGCCAACGUCCUCAACCUCCGAGGCAUCCCACCACAUGAUGAUGCCUGAAGAGACUUGGUUUUUUG [A90G U92G C123A] | -1.06
3 | GACCAAUCUGCCCUCAGAGCUCGAGAACAUCUUCGGAUGCAGAGGAGGCAGGCUUCGGUGGCGCGAUAGCGCCAACGUCCUCAACCUCCGAGGCAUCCCACCACAUUAUGAUGUCUGAAGAGCCUUUGUUUUUUG [A90G U92G G107U C114U G127U] | -5.63
4 | GACCAAUCUGCCCUCAGAGCUCGAGAACAUCUUCGGAUGCAGAGGAGGCAGGCUUCGGUGGCGCGAUAGCGCCAACGUCCUCAACCUCCGAUGCAUCCCACCACAUGAUGAUGCCUGAAGAGCCUAGGUUUUUUG [A90G U126A] | -1.39
5 | GACCAAUCUGCCCUCAGAGCUCGAGAACAUCUUCGGAUGCAGAGGAGGCAGGCUUCGGUGGCGCGAUAGCGCCAACGUCCUCAACCUCCUAUGCAUCCCCCCACAUGAUGAUGCCUGAGGAGCCUUGGUUUUUUG [A90U A100C A119G] | -2.07
6 | GACCAAUCUGCCCUCAGAGCUCGAGAACAUCUUCGGAUGCAGAGGAGGCAGGCUUCGGUGGCGCGAUAGCGCCAACGUCCUCAACCUCCUAUGCAUCCCUCCACAUGAUGAUGCCUGAAGAGCCUUGGUUUUUUG [A90U A100U] | -2.77
7 | GACCAAUCUGCCCUCAGAGCUCGAGAACAUCUUCGGAUGCAGAGGAGGCAGGCUUCGGUGGCGCGAUAGCGCCAACGUCCUCAACCUCCUAUGCAUCCCACCUCACGAUGAUGCCUGAAGAGCCUUGGUUUUUUG [A90U A103U U106C] | -5.93
8 | GACCAAUCUGCCCUCAGAGCUCGAGAACAUCUUCGGAUGCAGAGGAGGCAGGCUUCGGUGGCGCGAUAGCGCCAACGUCCUCAACCUCCUAUGCAUUCCACCAAAUGAGGAUGCCUGAAGAGCAUUGGUUUUUUG [A90U C97U C104A U109G C124A] | -3.98
9 | GACCAAUCUGCCCUCAGAGCUCGAGAACAUCUUCGGAUGCAGAGGAGGCAGGCUUCGGUGGCGCGAUAGCGCCAACGUCCUCAACCUCCUAUGCAUCCCACCACAUGAUGAUUCCUGAAGAGCCUUGGUUUUUUG [A90U G113U] | -2.89
10 | GACCAAUCUGCCCUCAGAGCUCGAGAACAUCUUCGGAUGCAGAGGAGGCAGGCUUCGGUGGCGCGAUAGCGCCAACGUCCUCAACCUCCUAUGCACCCCACCACAUGAUGAUGCUUGAAGAGCCUUGGUUUUUUG [A90U U96C C115U] | -1.64
11 | GACCAAUCUGCCCUCAGAGCUCGAGAACAUCUUCGGAUGCAGAGGAGGCAGGCUUCGGUGGCGCGAUAGCGCCAACGUCCUCAACCUCCUAUGCAUCCCACCACAAGAUGAUGCCUGAAGAGCCUUGGUUUUUUG [A90U U106A] | -1.76
12 | GACCAAUCUGCCCUCAGAGCUCGAGAACAUCUUCGGAUGCAGAGGAGGCAGGCUUCGGUGGCGCGAUAGCGCCAACGUCCUCAACCUCCUAUGCAUCCCACCACAAGAUGUUGCCUGAAGAGCCUUGGUUUUUUG [A90U U106A A111U] | -3.8
13 | GACCAAUCUGCCCUCAGAGCUCGAGAACAUCUUCGGAUGCAGAGGAGGCAGGCUUCGGUGGCGCGAUAGCGCCAACGUCCUCAACCUCCUAUGCAUCCCACCACAGGAUGAUGCCUGAAGAGCCUUGGUUUUUUG [A90U U106G] | -4.63
14 | GACCAAUCUGCCCUCAGAGCUCGAGAACAUCUUCGGAUGCAGAGGAGGCAGGCUUCGGUGGCGCGAUAGCGCCAACGUCCUCAACCUCCACUGCAUCCCACCCCAUGAUGAUGCCUGAAGAGCCUUGGUUUUUUG [A91C A103C] | -7.08
15 | GACCAAUCUGCCCUCAGAGCUCGAGAACAUCUUCGGAUGCAGAGGAGGCAGGCUUCGGUGGCGCGAUAGCGCCAACGUCCUCAACCUCCACUGCAUCCCACCACAUGAUGCUGCCUGAAGAGCCUUGGUUUUUUG [A91C A111C] | -2.03
16 | GACCAAUCUGCCCUCAGAGCUCGAGAACAUCUUCGGAUGCAGAGGAGGCAGGCUUCGGUGGCGCGAUAGCGCCAACGUCCUCAACCUCCACUGCAUCCCACCACAUGAUGAUGUCUGAAGAGCCUUGGUUUUUUG [A91C C114U] | -3.62
17 | GACCAAUCUGCCCUCAGAGCUCGAGAACAUCUUCGGAUGCAGAGGAGGCAGGCUUCGGUGGCGCGAUAGCGCCAACGUCCUCAACCUCCACUGCAUCCCACCACAUGAUGAUGCCUCAAGAGCCUUGGUUUUUUG [A91C G117C] | -1.71
18 | GACCAAUCUGCCCUCAGAGCUCGAGAACAUCUUCGGAUGCAGAGGAGGCAGGCUUCGGUGGCGCGAUAGCGCCAACGUCCUCAACCUCCACUGCAUCCCACCACAUGAUGAAGCCUGAAGAGACUUGCUUUUUUG [A91C U112A C123A G128C] | -3.53
19 | GACCAAUCUGCCCUCAGAGCUCGAGAACAUCUUCGGAUGCAGAGGAGGCAGGCUUCGGUGGCGCGAUAGCGCCAACGUCCUCAACCUCCACUGCAUCCCACCACAUGAUGAUGCCUGAAGAGCCAUGGUUUUUUG [A91C U125A] | -2.71
20 | GACCAAUCUGCCCUCAGAGCUCGAGAACAUCUUCGGAUGCAGAGGAGGCAGGCUUCGGUGGCGCGAUAGCGCCAACGUCCUCAACCUCCAGUGCAUCCCCCCACAUGAUGAUGCCUGAAGAGCCUUGGUUUUUUG [A91G A100C] | -2.5
21 | GACCAAUCUGCCCUCAGAGCUCGAGAACAUCUUCGGAUGCAGAGGAGGCAGGCUUCGGUGGCGCGAUAGCGCCAACGUCCUCAACCUCCAGUGCAUCUCACCACAUGAUGAUGCCUGAAGAGCCUUGGUUUUUUG [A91G C98U] | -1.4
